Reference: article PMC5488163

Biological target: free 17K‐apo(a) variant (purified recombinant apolipoprotein(a) with 17 KIV domains) (human)
Assay: co-IP

purified HCVcc, infectious hepatitis C virus particles (JFH1‐CS‐A4‐RLuc‐TM) (complex)
percent of HCV RNAs coimmunoprecipitated: 39.9%
